The text below walks through data of patent US20260250421A1 (BIOCYTOGEN PHARMACEUTICALS BEIJING, published 2026).

The target in assay [1] is T1, His-tagged dog PTK7 protein (dog, UniProt Q13308 31-703 (human entry)).
T1 construct: also called dPTK7-His
T1 chain: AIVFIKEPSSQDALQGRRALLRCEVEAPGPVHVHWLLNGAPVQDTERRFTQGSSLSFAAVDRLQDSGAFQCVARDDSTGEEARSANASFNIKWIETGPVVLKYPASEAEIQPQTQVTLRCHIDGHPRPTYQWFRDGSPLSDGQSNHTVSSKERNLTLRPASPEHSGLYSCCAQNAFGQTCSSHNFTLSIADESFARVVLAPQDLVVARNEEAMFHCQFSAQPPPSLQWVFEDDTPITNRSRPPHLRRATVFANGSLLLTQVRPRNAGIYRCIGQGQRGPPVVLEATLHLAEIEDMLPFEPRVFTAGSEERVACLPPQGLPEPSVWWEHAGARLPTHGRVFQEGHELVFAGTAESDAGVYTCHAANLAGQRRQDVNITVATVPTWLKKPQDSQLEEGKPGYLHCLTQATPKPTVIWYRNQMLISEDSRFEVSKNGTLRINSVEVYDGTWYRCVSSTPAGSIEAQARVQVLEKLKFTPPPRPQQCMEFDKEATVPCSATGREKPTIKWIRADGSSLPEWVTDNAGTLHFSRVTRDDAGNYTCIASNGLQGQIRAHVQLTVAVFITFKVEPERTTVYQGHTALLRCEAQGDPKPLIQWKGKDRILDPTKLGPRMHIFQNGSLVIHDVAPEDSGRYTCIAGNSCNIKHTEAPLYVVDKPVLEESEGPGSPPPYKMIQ
Nature of the assay: SPR Biacore 8K, Ab on Protein A chip. As to the method:
(§1) Purified anti-PTK7 antibodies were diluted to 1 μg/mL and then injected into the Biacore™ 8K biosensor at 10 μL/min for about 50 seconds to achieve a desired protein density (e.g., about 50 response units (RU)). The His-tagged PTK7 protein at a concentration of 200 nM or 0 nM was then injected at 30 μL/min for 180 seconds. Dissociation was monitored for 400 seconds. The chip was regenerated after the last injection of each titration with glycine (pH 2.0, 30 μL/min for 30 seconds).
(In general: In SPR one partner is held on a chip, and binding of the other changes the refractive index at the surface.)

The target of assay [2] is T2, His-tagged cynomolgus monkey PTK7 protein (cynomolgus monkey, UniProt A0A2K5VNI5 39-712).
T2 construct: Bought protein; also called cPTK7-His; ACRO Biosystems Cat# PT7-C52H3; not shown: His tag
T2 sequence: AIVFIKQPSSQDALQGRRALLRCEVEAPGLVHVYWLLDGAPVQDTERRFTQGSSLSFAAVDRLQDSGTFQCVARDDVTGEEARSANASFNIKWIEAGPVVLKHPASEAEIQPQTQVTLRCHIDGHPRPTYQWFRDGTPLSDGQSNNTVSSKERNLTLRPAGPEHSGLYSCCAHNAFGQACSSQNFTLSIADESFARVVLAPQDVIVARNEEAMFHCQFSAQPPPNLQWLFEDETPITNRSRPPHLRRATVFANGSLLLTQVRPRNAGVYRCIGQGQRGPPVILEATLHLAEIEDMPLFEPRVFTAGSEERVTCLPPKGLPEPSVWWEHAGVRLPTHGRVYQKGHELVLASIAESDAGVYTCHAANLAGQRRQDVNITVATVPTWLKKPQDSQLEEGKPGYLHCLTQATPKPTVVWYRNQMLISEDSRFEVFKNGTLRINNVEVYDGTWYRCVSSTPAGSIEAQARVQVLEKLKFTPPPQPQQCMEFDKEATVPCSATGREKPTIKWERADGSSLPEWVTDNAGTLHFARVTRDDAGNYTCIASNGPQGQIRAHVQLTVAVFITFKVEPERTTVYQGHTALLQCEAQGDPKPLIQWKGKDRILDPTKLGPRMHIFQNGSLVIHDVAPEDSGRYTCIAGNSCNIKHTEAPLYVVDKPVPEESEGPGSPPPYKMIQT
Nature of the assay: SPR Biacore 8K, Ab on Protein A chip. As to the method: as §1

Assay [3] addresses T3, His-tagged human PTK7 protein (human, UniProt Q13308 31-704).
T3 construct: Bought protein; also called hPTK7-His; not shown: His tag
T3 sequence: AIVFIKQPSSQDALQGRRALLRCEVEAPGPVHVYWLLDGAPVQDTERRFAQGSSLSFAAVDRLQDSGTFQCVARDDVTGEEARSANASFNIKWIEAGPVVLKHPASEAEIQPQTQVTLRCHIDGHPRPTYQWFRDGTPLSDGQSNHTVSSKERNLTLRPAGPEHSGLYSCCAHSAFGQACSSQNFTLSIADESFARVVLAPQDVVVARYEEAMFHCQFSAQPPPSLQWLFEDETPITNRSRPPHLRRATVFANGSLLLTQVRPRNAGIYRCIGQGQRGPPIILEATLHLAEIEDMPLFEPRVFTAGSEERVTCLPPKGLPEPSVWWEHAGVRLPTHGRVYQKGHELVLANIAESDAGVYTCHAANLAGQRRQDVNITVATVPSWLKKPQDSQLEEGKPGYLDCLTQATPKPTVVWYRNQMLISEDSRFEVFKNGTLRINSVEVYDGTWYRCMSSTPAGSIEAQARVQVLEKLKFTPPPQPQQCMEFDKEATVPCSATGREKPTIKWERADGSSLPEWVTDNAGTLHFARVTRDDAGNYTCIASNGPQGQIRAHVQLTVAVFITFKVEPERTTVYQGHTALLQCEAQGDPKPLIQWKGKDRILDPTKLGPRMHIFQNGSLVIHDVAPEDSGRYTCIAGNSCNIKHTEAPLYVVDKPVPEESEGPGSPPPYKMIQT
Nature of the assay: BLI Octet binning on hPTK7-His; competitor 1A7. As to the method:
Relative positions of target protein epitope between a pair of purified anti-PTK7 antibodies were analyzed by Biolayer Interferometry (BLI) using ForteBio Octet system at 30° C. A total of […] purified antibodies were used: 1A7, 1A11, 1F2, 2A5, 2D11, 2F5, 3C4 and 3E6.
1×HBS-EP+ buffer (10 mM 4-(2-hydroxyethyl)-1-piperazineethanesulfonic acid (HEPES), 150 mM NaCl, 3 mM ethylenediaminetetraacetic acid (EDTA) and 0.05% P20, pH7.4) diluted from HBS-EP+ buffer (10×) was used as the running buffer throughout the experiment. His-tagged human PTK7 protein was captured at a flow rate of 10 μL/min, and 200 nM of antibody (Analyte 1) was injected at a flow rate of 30 μL/min to bind the ligand. Another antibody (Analyte 2) was injected under the same conditions to determine whether the binding of different antibodies interfered with each other. The binding time was 300 s for each antibody.
The binding value of each antibody was obtained using Data Analysis HT 12.0. To quantify the interference of one antibody binding to another, a binding ratio was calculated to compare each pair of antibodies. The binding ratio is defined as the binding value of the second antibody (Analyte 2), divided by the binding value of the first antibody (Analyte 1). […] In general, antibody pairs that interfere with each other have the same or overlapping epitopes.
A general note: Biolayer interferometry detects binding as a change in optical thickness at a sensor tip.

B1: 1F2 (antibody, V domains shown)
VH: QVQLVQSGGGLVQPGGSLRLSCAASGFTFSRYEMNWVRQAPGKGLEWVSYINSIGSAINYADSVKGRFTISRDNAKNSLYLQMRSLRAEDTAVYYCVREDNWNPGYWGQGTLVTVSS
VL: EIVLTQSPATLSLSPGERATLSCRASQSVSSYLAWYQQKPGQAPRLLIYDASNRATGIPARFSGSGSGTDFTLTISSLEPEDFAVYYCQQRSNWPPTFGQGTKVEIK
notes: also called anti-PTK7 antibody 1F2
One may read the Kd as the free concentration of one partner at which half of the binding sites on the other are occupied at equilibrium, for simple one-to-one binding. The koff is a measure of how fast the partners let go of each other. In general, kon refers to the second-order rate constant of association. B1: in assay [1], the Kd amounted to 21.2 nM, the koff is 0.00927 s⁻¹ and the kon was determined as 437000 M⁻¹ s⁻¹. In addition, in assay [2], the Kd was determined as 30.2 nM, the koff is 0.00949 s⁻¹ and the kon amounted to 314000 M⁻¹ s⁻¹. In addition, in assay [3], the binding ratio is 0.64.

B2: 1A11 (antibody, V domains shown)
VH: QVQLVQSGPGLVKPSETLSLTCTVSGGSINSYYWNWIRQPPGKGLEWIGYIYYSGSTNYNPSLKSRVTISVDTSKNQFSLKLSSVTAADTAVYYCARDPHDYIRGHFDLWGRGTLFTVSS
VL: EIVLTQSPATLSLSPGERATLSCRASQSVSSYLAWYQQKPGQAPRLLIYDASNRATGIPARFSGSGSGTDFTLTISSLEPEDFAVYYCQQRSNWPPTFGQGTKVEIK
notes: also called anti-PTK7 antibody 1A11
In assay [1], B2 displayed a Kd of 14.5 nM, a koff of 0.00123 s⁻¹ and a kon of 84600 M⁻¹ s⁻¹. In addition, in assay [2], binding was characterised by a dissociation constant (Kd) of 18.4 nM, the koff amounted to 0.00131 s⁻¹ and the kon was found to be 71200 M⁻¹ s⁻¹. Further, the binding ratio in assay [3] is 0.71.

B3: 3C4 (antibody, V domains shown)
VH: QVQLEQSRAEVKKPGESLRISCKGSGYSFTSYWISWVRQMPGKGLEWMGRIDPSDSYTNYNPSFQGHVTISADKSISTAYLQWSSLKASDTAMYYCARRDGSYFDFDYWGQGTLVTVSS
VL: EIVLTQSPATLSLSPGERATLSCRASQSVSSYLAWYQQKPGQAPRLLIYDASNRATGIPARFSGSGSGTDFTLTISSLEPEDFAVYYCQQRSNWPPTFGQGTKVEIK
notes: also called anti-PTK7 antibody 3C4
In assay [1], B3 returned a Kd of 8.48 nM, a koff of 0.00399 s⁻¹ and a kon of 471000 M⁻¹ s⁻¹. In assay [2], this molecule returned a Kd of 23.2 nM, a koff of 0.00187 s⁻¹ and a kon of 80600 M⁻¹ s⁻¹. Further, in assay [3], the binding ratio worked out at 0.87.

B4: 3E6 (antibody, V domains shown)
VH: QVQLVESGAEVKKPGESLRISCRGSGYSFTSYWISWVRQMPGKGLEWMGRIDPSDSYTKYSPSFQGHVTISADKSISTAYLQWSSLKASDTAMYYCARRDGDYFDFDYWGQGTLVTVSS
VL: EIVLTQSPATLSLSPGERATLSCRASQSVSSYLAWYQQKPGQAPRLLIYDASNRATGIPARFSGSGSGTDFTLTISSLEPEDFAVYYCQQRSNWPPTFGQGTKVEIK
notes: also called anti-PTK7 antibody 3E6
Regarding B4, in assay [1], the Kd was 11.6 nM, the koff was determined as 0.00171 s⁻¹ and the kon stood at 147000 M⁻¹ s⁻¹. In assay [2], this molecule yielded a Kd of 3.95 nM, a koff of 0.000481 s⁻¹ and a kon of 122000 M⁻¹ s⁻¹. The binding ratio in assay [3] is 0.71.

B5: 1A7 (antibody, human IgG1, V domains shown)
VH: QVQLVESGGGVVQPGRSLRLSCAASGFTFSNYGMHWVRQAPGKGLEWVAVIYYDGSNKFYADSVKGRFTISRDNSKNTLYLQMSSLRAEDTAVYYCARDVAPPGSRAEYFHHWGQGTLVTVSS
VL: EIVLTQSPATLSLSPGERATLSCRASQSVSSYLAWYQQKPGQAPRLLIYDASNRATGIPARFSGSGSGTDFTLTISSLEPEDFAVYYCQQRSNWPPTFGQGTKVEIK
notes: also called anti-PTK7 antibody 1A7
For B5, in assay [1], the affinity, expressed as Kd, was 2.3 nM; the off-rate (koff) worked out at 0.000133 s⁻¹; the kon was determined as 58000 M⁻¹ s⁻¹. In assay [2], this molecule yielded a Kd of 17.9 nM, a koff of 0.000733 s⁻¹ and a kon of 41100 M⁻¹ s⁻¹. The binding ratio in assay [3] stood at 0.08.

B6: 2D11 (antibody, V domains shown)
VH: QVQLVESGGGVVQPGRSLRLSCAASGFTFSSYGMHWVRQAPGKGLEWVAVIFYDGSNKYYADSVKGRFTISRDNSKNTLYLQMNSLRAEDTSVYYCARDVAAPGSRAEYFQNWGQGTLVTVSS
VL: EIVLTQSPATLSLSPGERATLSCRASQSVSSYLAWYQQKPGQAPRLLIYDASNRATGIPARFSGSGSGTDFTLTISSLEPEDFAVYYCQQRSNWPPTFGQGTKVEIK
notes: also called anti-PTK7 antibody 2D11
On to B6, for which, in assay [1], binding was put at a Kd of 0.898 nM, the koff was determined as 5.47e-05 s⁻¹ and the kon is 60900 M⁻¹ s⁻¹. Also, in assay [2], binding was put at a Kd of 3.08 nM, the koff came out at 0.000177 s⁻¹ and the kon stood at 57400 M⁻¹ s⁻¹. The binding ratio in assay [3] came to 0.17.

B7: 2F5 (antibody, V domains shown)
VH: QVQLVESGGGVVQPGRSLRLSCVASGFTFSNYGMHWVRQAPGKGLEWVAIIYYDGSNKYYADSVKGRFTISRDNSKNTLYLQMNSLRAEDTAVYYCARDVAAAGSRAEYLHHWGQGTLVTVSS
VL: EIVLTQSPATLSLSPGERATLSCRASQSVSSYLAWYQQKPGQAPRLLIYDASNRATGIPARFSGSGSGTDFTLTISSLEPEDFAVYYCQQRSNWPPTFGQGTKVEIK
notes: also called anti-PTK7 antibody 2F5
As for B7, in assay [1], binding was characterised by a dissociation constant (Kd) of 11.1 nM, the koff turned out to be 0.000563 s⁻¹ and the on-rate (kon) was determined as 50700 M⁻¹ s⁻¹. Moreover, in assay [2], binding was characterised by a dissociation constant (Kd) of 35.2 nM, the koff came to 0.00146 s⁻¹ and the on-rate constant (kon) is 41600 M⁻¹ s⁻¹. For the same molecule, the binding ratio in assay [3] came out at 0.12.

B8: 2A5 (antibody, V domains shown)
VH: QVQLVQSGGGVVQPGRSLRLSCAASGFTFSNYGMHWVRQAPGKGLEWVAVIWYDGRNKYYADSVKGRFTISRDNSKNTLYLQMNSLRAEDTAVYYCARDVAPAGSRAEYFQNWGQGTLVTVSS
VL: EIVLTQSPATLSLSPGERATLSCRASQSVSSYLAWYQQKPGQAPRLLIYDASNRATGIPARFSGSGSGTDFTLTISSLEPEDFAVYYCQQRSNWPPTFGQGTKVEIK
notes: also called anti-PTK7 antibody 2A5
Consider B8, for which, in assay [1], the Kd came to 3.43 nM, the koff amounted to 0.000167 s⁻¹ and the kon is 48600 M⁻¹ s⁻¹. In assay [2], this molecule showed a Kd of 10.8 nM, a koff of 0.000439 s⁻¹ and a kon of 40700 M⁻¹ s⁻¹. The binding ratio in assay [3] is -0.02.
